Measured values taken from the supplement of paper PMC9732359.
± gives the uncertainty stated by the source.

Test: protein stability index of a GFP-peptide fusion (yeast GPS) (PSI 1-4); higher = more stable; sorted into four equal gates, so the index is relative within each strain
Method in brief: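 Each library plasmid carries Cherry plus GFP with a tiled 17-residue yeast protein peptide fused downstream, and the pooled library was carried in yeast. Mid-log cultures in leucine-free medium were sorted into four equal gates by GFP/Cherry ratio. Reads from Illumina sequencing of PCR-amplified plasmids from each gate were assigned to strains by barcodes. Per peptide, the protein stability index was computed as the summed products of gate read frequency and gate number.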

| Sequence | protein stability index (doa10∆) | protein stability index (pdr5∆) | protein stability index (san1∆) | protein stability index (ubr1∆) |
| --- | --- | --- | --- | --- |
| VLKCLKSLESQRYVKSV [RPC34] | 1.72 ± 0.059 | 1.94 ± 0.054 | 1.99 ± 0.1 | 1.91 ± 0.07 |
| VLKKKNIQKKQPAKEKG [RRP6] | 3 ± 0.085 | 3.03 ± 0.067 | 3.09 ± 0.042 | 3.22 ± 0.044 |
| VLKYMLLSKIMLNLIDD [RPN6] | 2.04 ± 0.06 | 1.49 ± 0.05 | 1.2 ± 0.098 | 1.66 ± 0.045 |
| VLQYSDWESDLHIHLNQ [YDL116W/NUP84] | 2.48 ± 0.073 | 2.61 ± 0.065 | 2.75 ± 0.066 | 3.04 ± 0.081 |
| VLVDEIKSQYYSRISKL [YIL149C/MLP2] | 2.41 ± 0.054 | 2.46 ± 0.045 | 2.3 ± 0.058 | 2.29 ± 0.034 |
| VLVKWTRTIKQNNFHVL [RGR1] | – | 1.3 ± 0.27 | – | – |
| VLVYDDKLEKVTHDCYR [RPC34] | 2.57 ± 0.1 | 3.18 ± 0.053 | 2.94 ± 0.069 | 2.96 ± 0.062 |
| VMESGAKGCEVVVSGKL [RPS3] | 3.04 ± 0.23 | – | 3 ± 0.24 | – |
| VMNTKLLQEGGSLSGNS [ESC2] | 3.27 ± 0.14 | 3.44 ± 0.14 | 3.13 ± 0.099 | 3.07 ± 0.19 |
| VNADDDDFMHSETREKE [RPB4] | 2.7 ± 0.089 | 2.61 ± 0.06 | 2.35 ± 0.089 | 1.99 ± 0.062 |
| VNADTVGKTVKQLIMES [NSL1] | 3.22 ± 0.077 | 3.13 ± 0.055 | 2.94 ± 0.058 | 3.33 ± 0.05 |
| VNAMRVLYYRDARSSRN [PRE4] | – | 3.16 ± 0.23 | 2.57 ± 0.26 | – |
| VNDRSDISDSEGGLFEC [PCI8] | 3.38 ± 0.2 | 3.11 ± 0.12 | 3.45 ± 0.071 | 3.08 ± 0.11 |
| VNDTVKIDLASGKITDF [RPS4A] | 3.07 ± 0.12 | 3.17 ± 0.1 | 3.26 ± 0.12 | 2.71 ± 0.15 |
| VNGFLNLGYCNDKLIVD [RPN1] | 3.32 ± 0.098 | 2.78 ± 0.067 | 2.89 ± 0.052 | 2.49 ± 0.079 |
| VNITKFSKFERSKSSHK [SKI6] | 2.73 ± 0.095 | 2.65 ± 0.059 | 2.76 ± 0.064 | 2.62 ± 0.048 |
| VNTEKKTIEVTAEINCF [RPN3] | – | 1.35 ± 0.11 | 1.78 ± 0.21 | 1.62 ± 0.16 |
| VNTTRRFQYSDDEPAEK [YMR129W/POM152] | 2.87 ± 0.22 | 3.17 ± 0.17 | 2.86 ± 0.19 | 2.95 ± 0.19 |
| VNVLLQSYFSQLKFEGF [BRR2] | 1.22 ± 0.048 | 1.51 ± 0.046 | 1.28 ± 0.074 | 1.48 ± 0.033 |
| VPAVVDDPLENMFGDYS [SNF6] | 3.09 ± 0.14 | 3.48 ± 0.12 | 2.85 ± 0.17 | 3.35 ± 0.11 |
| VPQGKIVALTNAKDKER [SMC3] | 2.77 ± 0.1 | 2.84 ± 0.14 | 2.83 ± 0.15 | 3.02 ± 0.092 |
| VPQSEETRAELSQLCAV [RPO21] | 2.37 ± 0.067 | 3.02 ± 0.065 | 2.79 ± 0.067 | 3.09 ± 0.061 |
| VQDIIGNGKLSEHFLYL [RPN1] | – | – | 3.29 ± 0.26 | – |
| VQLLSKSHNAHVRCGTA [RPN2] | 1.44 ± 0.071 | 1.5 ± 0.042 | 1.57 ± 0.08 | 1.72 ± 0.048 |
| VQQFAQLPVGFKNMGNT [UBP6] | 2.03 ± 0.1 | 1.74 ± 0.076 | 1.44 ± 0.15 | 1.92 ± 0.06 |
| VQVGPMKVFVTKHLMPQ [RPB7] | 2.54 ± 0.047 | 2.37 ± 0.041 | 2.14 ± 0.062 | 2.52 ± 0.042 |

| Sequence | protein stability index (doa10∆) | protein stability index (pdr5∆) | protein stability index (san1∆) | protein stability index (ubr1∆) |
| --- | --- | --- | --- | --- |
| VQYKLLSISVPSDVNID [SNU114] | 1.98 ± 0.076 | 2.5 ± 0.069 | 2.1 ± 0.074 | 2.44 ± 0.069 |
| VREFQRRLAFLGIKVAE [BRR2] | 2.06 ± 0.12 | 1.17 ± 0.14 | 1.04 ± 0.23 | 1.17 ± 0.087 |
| VRIYSGLLKRGDTVRIL [SNU114] | – | 2.92 ± 0.17 | 2.66 ± 0.17 | 3.02 ± 0.1 |
| VRMLASPMLYKVPDISS [BRR2] | 2.28 ± 0.073 | 2.77 ± 0.078 | 1.96 ± 0.1 | 2.28 ± 0.051 |
| VRNLQGIQEVVHNTNSF [NUT1] | 2.98 ± 0.079 | 3.15 ± 0.068 | 2.94 ± 0.063 | 3.17 ± 0.063 |
| VRNTAPNIRELGVKNLG [YCG1] | 2.88 ± 0.2 | 3.29 ± 0.22 | – | 2.98 ± 0.13 |
| VRNYKPLINRLKHYNGY [SWI1] | 1.79 ± 0.048 | 2.2 ± 0.045 | 2.57 ± 0.06 | 2.54 ± 0.039 |
| VRRLEAQRNALNDKVRF [RPT6] | 2.63 ± 0.1 | 2.96 ± 0.089 | 2.77 ± 0.13 | 2.7 ± 0.045 |
| VRSAEYYAKKRAFTKKV [RPL16B] | 2.66 ± 0.1 | 2.18 ± 0.066 | 2.61 ± 0.091 | 3.1 ± 0.063 |
| VRSLPKEEQPKQIIVTR [PRP8] | 2.38 ± 0.1 | 2.09 ± 0.25 | 2.21 ± 0.12 | 1.98 ± 0.072 |
| VRSREDRKNRAPPQRPR [RPS26A] | 3.27 ± 0.26 | – | 2.76 ± 0.12 | – |
| VRWIETQDVFLKDFNTE [FAS2] | 3.227 ± 0.03 | 3.065 ± 0.026 | 3.014 ± 0.025 | 3.154 ± 0.021 |
| VSEDLLDERGHEKIEDE [RPN4] | 3.36 ± 0.1 | 3.53 ± 0.15 | 3.71 ± 0.08 | 3.45 ± 0.11 |
| VSFNGFKLPKKFPPPTP [BRR2] | 2.57 ± 0.07 | 2.9 ± 0.067 | 2.8 ± 0.06 | 2.93 ± 0.052 |
| VSGNNASDEPSRKKNRR [SSN3] | 2.67 ± 0.1 | 3.01 ± 0.11 | 2.78 ± 0.14 | 2.91 ± 0.096 |
| VSKKWAAAGVCEKWAAS [RPL14B] | 2.64 ± 0.077 | 3.1 ± 0.14 | 2.73 ± 0.084 | 2.51 ± 0.066 |
| VSKPSLLHETNDSFKGL [PRP8] | – | 2.74 ± 0.13 | – | 2.99 ± 0.097 |
| VSMKANKYQIKKAVKEL [RPL25] | 1.18 ± 0.065 | 1.52 ± 0.07 | 2.98 ± 0.056 | 2.97 ± 0.071 |
| VSNIEGILDEIMFNHAR [RGR1] | 2.77 ± 0.054 | 2.53 ± 0.053 | 2.46 ± 0.065 | 2.99 ± 0.031 |
| VSNNVLRRLEILVPDLY [ECM29] | 2.31 ± 0.1 | 1.84 ± 0.083 | 1.56 ± 0.11 | 1.65 ± 0.073 |
| VSSLPGSTDKSLDFLNQ [COR1] | 3.45 ± 0.18 | – | 3.02 ± 0.28 | – |
| VTFSPTGRLFQVEYALE [PRE5] | 3.28 ± 0.099 | 2.77 ± 0.12 | 2.93 ± 0.23 | 2.79 ± 0.062 |
| VTKETVHPRKSYKMNSS [PRP8] | 3.03 ± 0.11 | 3.02 ± 0.086 | 2.96 ± 0.048 | 2.9 ± 0.065 |
| VTLFQMAILLLYNDADV [CDC53] | 2.03 ± 0.057 | 1.79 ± 0.051 | 1.67 ± 0.099 | 1.96 ± 0.041 |
| VTNDLDTSAEKDQIQAG [SIR4] | 3.32 ± 0.12 | 3.36 ± 0.12 | 3.28 ± 0.11 | 3.21 ± 0.073 |
| VTRTQQWSMVAQRLQIS [SWI1] | 2.05 ± 0.051 | 1.89 ± 0.049 | 2.27 ± 0.07 | 2.06 ± 0.04 |
